According to patent publication US20230028880A1, “CD38-BINDING AGENTS AND USES THEREOF” (Biohaven Therapeutics Ltd., priority 2019, published 2023):
Several values for one entry are separate records, joined by “and”; a condition that tells them apart may be missing. Equal entries are not always repeated. *1 amine or outer side, *2 acyl side, *3 side chain or, on linkers, in order; H or OH if unused. Bridges are numbered along the chain shown (N, C = ends). Where no end group is shown, it is not given here. [ ]: non-standard residue; d: D form. d(γGlu) = O=C(O)[C@@H](CCC(=O)[*:2])N[*:1]; 12Ado = NCCCCCCCCCCCC(=O)O

Target: CD38 on Daudi cells (human) (UniProt P28907)
Assay: ternary binding, flow cytometry: Daudi cells + PE human IgG1k

MFI at 1 nM: 216 and 385
MFI at 3 nM: 400 and 751
MFI at 10 nM: 1970 and 1940
MFI at 30 nM: 4030 and 4740
MFI at 100 nM: 5110 and 5380
MFI at 300 nM: 6240 and 5320
MFI at 1000 nM: 5150 and 5380
MFI at 3000 nM: 5220 and 5330
B1: I-28 (peptide, part only; not given: PEG8 unit, part only)
peptide: [d(γGlu)][d(γGlu)][dE](12Ado)[d(γGlu)][d(γGlu)]GGDCAWHLGELVWCT
modifications: disulfide 9-19; not fully specified (N-terminus); also: N-terminal PEG8 joins a further peptide chain not given here
